Patent US20130011406A1 (KOLLTAN PHARMACEUTICALS, published 2013)

How the values were obtained:
[1] = molecular target: T1, recombinant KIT D4/D5 polypeptide (D4/D5 region of human KIT, V308 to H515, with 5xHis tag) (human, UniProt P10721 26-519); assay: solid phase ELISA, D4/D5 polypeptide coated on plate
T1 construct: also called recombinant antigen; recombinant IG domain four and five of the extracellular region of KIT
Protocol: (§1) Coating plates with antigen: Recombinant antigen containing the D4/D5 region of the KIT extracellular Ig-like region (see FIG. 2A) were absorbed to 96-well microtiter plates. 10 μg of recombinant antigen (i.e., D4/D5 region of KIT) were diluted into 10 mL of borate buffer, and 100 μL of the antigen solution were added to each well of a 96 well plate. The 96 well plate was covered with a plate sealer, was incubated at 4° C. overnight, and then stored at −80° C. until the day of the assay.
ELISA: The plate with the absorbed antigen was removed from the −80° C. freezer and was allowed to thaw at room temperature. The borate buffer was removed by flicking the plate into the sink and blotting the plate dry. 200 μL of the blocking buffer were added to each well and allowed to incubate at room temperature for one hour. The blocking buffer was removed, again by flicking the plate into the sink. Then, the diluted solution of test antibodies and controls (were added to the plate in a volume of 50 μL and incubated at room temperature for one hour. The antibody solutions were removed, and the plate was washed four times with 300 μL of wash buffer with five minute incubations. After the last wash, the plate was blotted dry. The diluted secondary antibody solution was added to each well in a volume of 100 μL and allowed to incubate for one hour at room temperature. The diluted secondary antibody solution was removed, and the plate was washed four times with 300 μL of wash buffer with five minute incubations. The plate was then blotted dry, and freshly mixed substrate solution was added to each well in a volume of 100 μL and was allowed to incubate at room temperature for 30 minutes. Subsequently, 100 μL of 2NH₂SO₄ were added to each well and immediately read on the plate reader. An irrelevant antibody served as the negative control, and an anti-KIT antibody against the D4 and/or D5 domain of the extracellular region of KIT served as the positive control. OD values for each sample were obtained at a wavelength of 450 nm.

[2] = molecular target: T2, recombinant D4 domain polypeptide of human KIT (V308 to K412, with His tag) (human, UniProt P10721 26-412); assay: solid phase ELISA, polypeptide coated on plate
T2 construct: also called D4 domain of human KIT

[3] = molecular target: T3, recombinant D5 domain polypeptide of human KIT (N410 to H515, with His tag) (human, UniProt P10721 26-519); assay: solid phase ELISA, polypeptide coated on plate
T3 construct: also called D5 domain of human KIT

[4] = molecular target: T1, recombinant KIT D4/D5 polypeptide …; assay: solid phase ELISA, D4/D5 antigen coated on plate, Fab; concentration at 50% binding
Protocol: as §1
ELISA: The plate with the absorbed antigen was removed from the −80° C. freezer and was allowed to thaw at room temperature. The borate buffer was removed by flicking the plate into the sink and blotting the plate dry. 200 μL of the blocking buffer were added to each well and allowed to incubate at room temperature for one hour. The blocking buffer was removed, again by flicking the plate into the sink. […] Subsequently, 100 μL of 2NH₂SO₄ were added to each well and immediately read on the plate reader. […]

[5] = molecular target: T1, recombinant KIT D4/D5 polypeptide …; assay: binding assays on the D4/D5 region of human KIT (solid phase ELISA); IgG version of Fab Ab1 (Dyax reformatting), Example 2
[6] = molecular target: T4, full-length, wild-type human KIT (human, UniProt P10721 26-976); assay: cell-based or functional assay
[7] = molecular target: T4, full-length, wild-type human KIT; assay: immunofluorescence staining with Ab1-Alexa488 on CHO/KIT and NIH3T3/KIT cells, confocal microscopy
Protocol: Immunofluorescence staining assays were carried to determine if antibody Ab1 was internalized by cells. The immunofluorescence staining assays were carried out essentially as described below. Materials and reagents for the immunofluorescence assays include the following: [0745] Tissue culture slides: Poly-D-Lysine coated four or eight well chamber slide [0746] Antibody: Antibody Ab1 conjugated with the fluorescent dye Alexa-488 (Invitrogen) [0747] Fixative: 4% paraformaldehyde; store 40% PFA microscopy grade in fridge and dilute 1:10 with PBS just before use [0748] Mounting media: Prolong Gold antifade+DAPI [0749] CHO cells engineered to express exogenous human, wild-type KIT (full-length) (“CHO/KIT”) [0750] NIH3T3 cells engineered to express exogenous human, wild-type KIT (full-length) [0751] (“NIH3T3/KIT”)
15,000 to 30,000 CHO/KIT cells or NIH3T3/KIT cells were seeded into each well of the tissue culture slide. The cells were cultivated for at least 24 hrs before starvation in media containing no fetal bovin serum overnight. Ab1-Alexa488 was diluted in starvation media containing 1% bovine serum albumin and pipetted onto the cell layer. 5 to 60 min later, cell layers were washed once with PBS (room temperature). Cell layers were fixed for 18 min with fixative at room temperature, and were washed 3 times with PBS. […] Internalization of the antibody was analyzed by confocal microscopy.

[8] = molecular target: T1, recombinant KIT D4/D5 polypeptide …; assay: solid phase ELISA, recombinant D4/D5 region coated on plate, full-length human IgG1
Protocol: Serial antibody dilutions were prepared as follows. A starting antibody concentration of 300 nM (or lower depending on sample) was diluted down 1:3 in dilution buffer. Specifically, 200 μl of the starting concentration (top row of dilution plate) was prepared, and 75 μl was diluted into 150 μl in the row below. The dilution was mixed, and the dilution step was repeated down the plate. From the dilution plate, 100 μl was transferred to the assay plate.
The binding assays were carried out as follows. The plate coated with antigen (i.e., recombinant D4/D5 region of KIT) were removed from the −80° C. freezer and were allowed to warm to room temperature. The borate buffer was removed by flicking the plate into the sink and blotting it dry. 200 μL of the blocking buffer (1% BSA/TBS) was added and incubated at room temperature for one hour. The blocking buffer was then removed by flicking the plate into the sink, and blotting dry. Then, the serially diluted antibodies and controls were added to the plate in a volume of 100 μL, and the plate was sealed and incubated at room temperature for one hour.

[9] = molecular target: T3, recombinant D5 domain polypeptide of …; assay: solid phase ELISA, D5 polypeptide coated on plate

T4 sequence (P10721 other isoform, or with tags, fused parts or gaps limits assumed): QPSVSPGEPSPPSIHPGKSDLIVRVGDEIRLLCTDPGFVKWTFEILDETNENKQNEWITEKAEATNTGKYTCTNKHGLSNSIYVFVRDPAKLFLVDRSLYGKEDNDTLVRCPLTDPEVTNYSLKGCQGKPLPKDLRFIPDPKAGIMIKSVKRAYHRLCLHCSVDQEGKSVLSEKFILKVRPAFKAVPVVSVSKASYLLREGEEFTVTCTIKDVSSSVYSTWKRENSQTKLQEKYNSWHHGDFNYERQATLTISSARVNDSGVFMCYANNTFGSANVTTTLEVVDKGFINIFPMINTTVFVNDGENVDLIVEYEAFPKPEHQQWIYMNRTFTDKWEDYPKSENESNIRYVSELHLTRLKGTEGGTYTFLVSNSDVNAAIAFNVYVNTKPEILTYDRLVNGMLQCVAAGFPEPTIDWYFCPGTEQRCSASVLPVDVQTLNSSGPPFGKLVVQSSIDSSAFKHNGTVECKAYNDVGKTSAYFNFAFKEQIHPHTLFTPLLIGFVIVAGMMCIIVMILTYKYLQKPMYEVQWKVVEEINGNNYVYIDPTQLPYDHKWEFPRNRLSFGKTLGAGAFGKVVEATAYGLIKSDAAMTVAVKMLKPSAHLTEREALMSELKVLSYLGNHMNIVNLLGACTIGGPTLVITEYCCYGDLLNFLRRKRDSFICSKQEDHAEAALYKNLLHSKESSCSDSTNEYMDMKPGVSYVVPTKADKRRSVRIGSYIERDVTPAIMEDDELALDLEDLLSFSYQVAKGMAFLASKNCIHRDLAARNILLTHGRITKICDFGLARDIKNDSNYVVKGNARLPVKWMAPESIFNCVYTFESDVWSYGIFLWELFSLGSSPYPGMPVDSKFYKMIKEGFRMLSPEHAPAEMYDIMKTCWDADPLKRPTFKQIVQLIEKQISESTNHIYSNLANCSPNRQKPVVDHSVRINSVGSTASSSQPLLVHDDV
T3 sequence (P10721 other isoform, or with tags, fused parts or gaps limits assumed): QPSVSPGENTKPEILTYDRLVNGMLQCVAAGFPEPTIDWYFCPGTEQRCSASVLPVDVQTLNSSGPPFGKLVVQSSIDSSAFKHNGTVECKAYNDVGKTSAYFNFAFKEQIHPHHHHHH
T1 sequence (P10721 other isoform, or with tags, fused parts or gaps limits assumed): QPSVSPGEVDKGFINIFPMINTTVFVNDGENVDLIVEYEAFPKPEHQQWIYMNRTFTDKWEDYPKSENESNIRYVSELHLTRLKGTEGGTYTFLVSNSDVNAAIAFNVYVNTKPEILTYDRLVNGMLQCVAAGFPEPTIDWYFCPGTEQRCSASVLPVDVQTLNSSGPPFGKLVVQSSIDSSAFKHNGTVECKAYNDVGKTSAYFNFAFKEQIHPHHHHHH
T2 sequence (P10721 other isoform, or with tags, fused parts or gaps limits assumed): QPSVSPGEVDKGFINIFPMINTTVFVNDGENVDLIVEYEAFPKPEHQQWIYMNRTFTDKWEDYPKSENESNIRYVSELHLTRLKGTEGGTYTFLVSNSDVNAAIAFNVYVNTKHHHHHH

Binder | binding result [1] | binding result [2] | binding result [3] | further results
Fab antibody Ab4 (Fab, V domains shown, Fab from a phage library) VH: EVQLLESGGGLVQPGGSLRLSCAASGFTFSWYWMYWVRQAPGKGLEWVSGIYPSGGFTSYADSVKGRFTISRDNSKNTLYLQMNSLRAEDTAVYYCARSYYYGSGSYYNSASFDYWGQGTLVTVSS VL: DIQMTQSPSSLSASVGDRVAITCRASQSIDTYLNWYQQKPGKAPKLLIYAASKLEDGVPSRFSGSGTGTDFTLTIRSLQPEDFASYFCQQSYSSPGITFGPGTKVEIK | binds | no binding | no binding | 
Fab antibody Ab16 (Fab, V domains shown, Fab from a phage library) VH: EVQLLESGGGLVQPGGSLRLSCAASGFTFSQYVMFWVRQAPGKGLEWVSSIYPSGGHTLYADSVKGRFTISRDNSKNTLYLQMNSLRAEDTAVYYCAKHARGYNRGYFDSWGRGTLVTVSS VL: not shown | binds | no binding | no binding | 
Fab antibody Ab11 (Fab, V domains shown, Fab from a phage library) VH: EVQLLESGGGLVQPGGSLRLSCAASGFTFSNYRMMWVRQAPGKGLEWVSGIYPSGGGTFYADSVKGRFTISRDNSKNTLYLQMNSLRAEDTAVYYCARKKMATFAAFDIWGQGTMVTVSS VL: not shown |  |  |  | EC50 [4]: ≤ 300 nM
Fab antibody Ab18 (Fab, V domains shown, Fab from a phage library) VH: EVQLLESGGGLVQPGGSLRLSCAASGFTFSWYAMWWVRQAPGKGLEWVSYISSSGGATRYADSVKGRFTISRDNSKNTLYLQMNSLRAEDTAVYYCATVLQYGAFDIWGQGTMVTVSS VL: QSALTQPPSTSGTPGQRVTISCSGSSSNIGSNYVYWYQQLPGTAPKVLIYRNNKRPSGVPDRFSGSKSGTSASLAISGLRSEDEADYYCAAWDDSLNGVIFGGGTRLTVL | binds | no binding | no binding | 
IgG version of Fab antibody Ab1 (antibody, V domains shown, Variable regions of Fab Ab1 cloned into the Dyax pR vector) VH: EVQLLESGGGLVQPGGSLRLSCAASGFTFSNYLMSWVRQAPGKGLEWVSSIVPSGGFTHYADSVKGRFTISRDNSKNTLYLQMNSLRAEDTAVYYCARLQTGSWRVHAFDIWGQGTMVTVSS VL: DIQMTQSPTSLSAFVGDRVTITCQASQDIGNYLNWYQQKSGEPPKLLVYDASFLKKGVPSRFSGSGSGTQYFLTIYSLQPEDFATYFCQHSDNLSVTFGGGTKVEVK |  |  |  | EC50 [5]: ~0.007 nM; IC50 of inhibition of KIT phosphorylation (phospho-KIT assay) [6]: ~2.5 nM
Antibody Ab1 conjugated with the fluorescent dye Alexa-488 (antibody, V domains shown, conjugated with the fluorescent dye Alexa-488 (chain and site not stated), also called Ab1-Alexa488) VH: EVQLLESGGGLVQPGGSLRLSCAASGFTFSNYLMSWVRQAPGKGLEWVSSIVPSGGFTHYADSVKGRFTISRDNSKNTLYLQMNSLRAEDTAVYYCARLQTGSWRVHAFDIWGQGTMVTVSS VL: DIQMTQSPTSLSAFVGDRVTITCQASQDIGNYLNWYQQKSGEPPKLLVYDASFLKKGVPSRFSGSGSGTQYFLTIYSLQPEDFATYFCQHSDNLSVTFGGGTKVEVK |  |  |  | binding result [7]: binds
full-length human IgG1 antibody Ab1 (antibody, V domains shown, also called human monoclonal Ab1) VH: EVQLLESGGGLVQPGGSLRLSCAASGFTFSNYLMSWVRQAPGKGLEWVSSIVPSGGFTHYADSVKGRFTISRDNSKNTLYLQMNSLRAEDTAVYYCARLQTGSWRVHAFDIWGQGTMVTVSS VL: DIQMTQSPTSLSAFVGDRVTITCQASQDIGNYLNWYQQKSGEPPKLLVYDASFLKKGVPSRFSGSGSGTQYFLTIYSLQPEDFATYFCQHSDNLSVTFGGGTKVEVKR |  |  |  | EC50 [8]: 0.171 nM; 50% inhibition concentration (IC50) of tyrosine phosphorylation of the cytoplasmic domain of KIT (cell-based phospho-KIT assay) [6]: 2.2 nM
full-length human IgG1 antibody Ab21 (antibody, V domains shown, Derived from Ab1 by changing the N in VL CDR3 to S to remove a glycosylation site; also called human monoclonal Ab21) VH: EVQLLESGGGLVQPGGSLRLSCAASGFTFSNYLMSWVRQAPGKGLEWVSSIVPSGGFTHYADSVKGRFTISRDNSKNTLYLQMNSLRAEDTAVYYCARLQTGSWRVHAFDIWGQGTMVTVSS VL: DIQMTQSPTSLSAFVGDRVTITCQASQDIGNYLNWYQQKSGEPPKLLVYDASFLKKGVPSRFSGSGSGTQYFLTIYSLQPEDFATYFCQHSDSLSVTFGGGTKVEVKR |  |  |  | EC50 [8]: 0.156 nM; 50% inhibition concentration (IC50) of tyrosine phosphorylation of the cytoplasmic domain of KIT (cell-based phospho-KIT assay) [6]: 1.3 nM
Fab antibody Ab15 (Fab, V domains shown, Fab from a phage library) VH: EVQLLESGGGLVQPGGSLRLSCAASGFTFSNYTMMWVRQAPGKGLEWVSGIRPSGGGTMYADSVKGRFTISRDNSKNTLYLQMNSLRAEDTAVYYCASVVNHKFDNWGQGTLVTVSS VL: not shown | binds | no binding | no binding | 
Fab antibody Ab19 (Fab, V domains shown, Fab from a phage library) VH: EVQLLESGGGLVQPGGSLRLSCAASGFTFSNYQMQWVRQAPGKGLEWVSSIRPSGGSTQYADSVKGRFTISRDNSKNTLYLQMNSLRAEDTAVYYCARGSSHAFDIWGQGTMVTVSS VL: DIQMTQSPGTLSLSPGERATLSCRASQSFRSSYLAWYQQKPGQAPRLLIYDTSTRATGIPDRFSGSGSGTDFTLTISRLEPEDFAVYYCQQYGSSPPMYTFGQGTKLEIK |  |  |  | binding result [9]: binds
Fab antibody Ab14 (Fab, V domains shown, Fab from a phage library) VH: EVQLLESGGGLVQPGGSLRLSCAASGFTFSRYAMWWVRQAPGKGLEWVSYIYSSGGQTGYADSVKGRFTISRDNSKNTLYLQMNSLRAEDTAVYYCARGGVTFDLWGRGTLVTVSS VL: DIQMTQSPATLSVSPGERATLSCRASQGVSTYLAWYQQKPGQAPRLLIYGASTRATGIPARFSGSGSGTDFTLTINSLELEDFAVYYCQQRRSWPPTFGQGTKVEIK | binds | no binding | no binding | 
Fab antibody Ab12 (Fab, V domains shown, Fab from a phage library) VH: EVQLLESGGGLVQPGGSLRLSCAASGFTFSFYKMHWVRQAPGKGLEWVSGIWPSGGYTEYADSVKGRFTISRDNSKNTLYLQMNSLRAEDTAVYYCARSSGYHIDYWGQGTLVTVSS VL: DIQMTQSPGTLSLSPGERATLYCRASQSVKSNYLAWYQQKPGQAPRLLIYGASTRATDIPDRFSGSGSGTDFTLTISRLEPEDFAVYYCQQYGSSLSYTFGQGTKLEIK |  |  |  | EC50 [4]: ≤ 300 nM
